Results as given in patent US10925971B2, “Methods of treating PRLR positive breast cancer” (Regeneron Pharmaceuticals, Inc., priority 2016, dated 2021).

T1: native PRLR expressing T47D cells (Homo sapiens, UniProt P16471)
T1 construct: a native PRLR expressing cell line (T47D); endogenous in cells; host or cells: T47D
T1 sequence (P16471 25-622): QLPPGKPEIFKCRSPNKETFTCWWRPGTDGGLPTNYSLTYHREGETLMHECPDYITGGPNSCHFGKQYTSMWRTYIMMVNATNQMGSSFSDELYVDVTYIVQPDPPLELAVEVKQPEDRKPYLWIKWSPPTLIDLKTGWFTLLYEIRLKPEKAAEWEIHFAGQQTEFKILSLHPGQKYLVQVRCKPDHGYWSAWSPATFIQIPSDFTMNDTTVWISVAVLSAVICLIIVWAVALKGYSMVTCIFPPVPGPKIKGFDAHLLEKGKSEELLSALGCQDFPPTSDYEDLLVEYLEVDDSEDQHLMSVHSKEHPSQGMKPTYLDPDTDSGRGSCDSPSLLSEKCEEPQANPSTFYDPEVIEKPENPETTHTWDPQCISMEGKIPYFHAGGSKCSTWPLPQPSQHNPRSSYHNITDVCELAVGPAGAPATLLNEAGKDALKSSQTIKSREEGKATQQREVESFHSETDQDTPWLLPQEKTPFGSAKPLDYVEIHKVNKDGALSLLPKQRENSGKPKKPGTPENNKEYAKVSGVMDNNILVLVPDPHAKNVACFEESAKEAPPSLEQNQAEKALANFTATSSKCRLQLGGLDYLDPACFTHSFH

T2: mouse PRLR on HEK293/mPRLR cells (Mus musculus, UniProt Q08501)
T2 construct: HA; expressed in transfected cells; host or cells: HEK293
T2 sequence (Q08501 20-608): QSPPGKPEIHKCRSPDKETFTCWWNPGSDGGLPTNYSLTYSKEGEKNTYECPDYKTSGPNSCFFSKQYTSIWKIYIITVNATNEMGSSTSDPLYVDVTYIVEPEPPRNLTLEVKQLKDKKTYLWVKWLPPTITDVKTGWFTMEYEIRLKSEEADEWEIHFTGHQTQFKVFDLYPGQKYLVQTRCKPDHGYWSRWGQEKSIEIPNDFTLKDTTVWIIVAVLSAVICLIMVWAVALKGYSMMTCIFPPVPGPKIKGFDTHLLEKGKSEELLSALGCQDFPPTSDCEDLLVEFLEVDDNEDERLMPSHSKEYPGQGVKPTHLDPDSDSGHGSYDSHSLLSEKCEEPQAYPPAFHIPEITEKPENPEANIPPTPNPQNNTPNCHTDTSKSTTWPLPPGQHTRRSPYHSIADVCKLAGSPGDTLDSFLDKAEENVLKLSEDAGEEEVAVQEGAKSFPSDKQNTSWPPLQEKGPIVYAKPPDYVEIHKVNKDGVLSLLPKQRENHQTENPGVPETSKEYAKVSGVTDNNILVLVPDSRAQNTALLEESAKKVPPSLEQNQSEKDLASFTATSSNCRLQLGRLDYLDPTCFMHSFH

T3: human PRLR on HEK293/hPRLR cells (Homo sapiens, UniProt P16471)
T3 construct: HA; expressed in transfected cells; host or cells: HEK293
T3 sequence (P16471 25-622): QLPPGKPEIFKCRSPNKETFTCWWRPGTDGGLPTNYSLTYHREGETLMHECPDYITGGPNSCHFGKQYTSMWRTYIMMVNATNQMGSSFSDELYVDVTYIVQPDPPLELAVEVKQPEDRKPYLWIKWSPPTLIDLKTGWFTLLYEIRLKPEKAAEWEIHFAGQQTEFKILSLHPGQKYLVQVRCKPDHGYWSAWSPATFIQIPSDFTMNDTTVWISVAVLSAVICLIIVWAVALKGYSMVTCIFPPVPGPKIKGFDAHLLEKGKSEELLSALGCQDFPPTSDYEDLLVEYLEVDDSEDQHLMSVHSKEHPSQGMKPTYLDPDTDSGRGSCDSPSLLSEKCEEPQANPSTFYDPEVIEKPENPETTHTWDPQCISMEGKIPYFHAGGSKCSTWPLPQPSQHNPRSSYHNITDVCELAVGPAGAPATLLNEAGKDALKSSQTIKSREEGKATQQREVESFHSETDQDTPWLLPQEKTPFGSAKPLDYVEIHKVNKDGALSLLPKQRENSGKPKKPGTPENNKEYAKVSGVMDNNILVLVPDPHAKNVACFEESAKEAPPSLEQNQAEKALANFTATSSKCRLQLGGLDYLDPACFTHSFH

T4: monkey PRLR on HEK293/mfPRLR cells (Macaca fascicularis, UniProt A0A2K5WXK1)
T4 construct: HA; expressed in transfected cells; host or cells: HEK293
T4 sequence (A0A2K5WXK1 25-619): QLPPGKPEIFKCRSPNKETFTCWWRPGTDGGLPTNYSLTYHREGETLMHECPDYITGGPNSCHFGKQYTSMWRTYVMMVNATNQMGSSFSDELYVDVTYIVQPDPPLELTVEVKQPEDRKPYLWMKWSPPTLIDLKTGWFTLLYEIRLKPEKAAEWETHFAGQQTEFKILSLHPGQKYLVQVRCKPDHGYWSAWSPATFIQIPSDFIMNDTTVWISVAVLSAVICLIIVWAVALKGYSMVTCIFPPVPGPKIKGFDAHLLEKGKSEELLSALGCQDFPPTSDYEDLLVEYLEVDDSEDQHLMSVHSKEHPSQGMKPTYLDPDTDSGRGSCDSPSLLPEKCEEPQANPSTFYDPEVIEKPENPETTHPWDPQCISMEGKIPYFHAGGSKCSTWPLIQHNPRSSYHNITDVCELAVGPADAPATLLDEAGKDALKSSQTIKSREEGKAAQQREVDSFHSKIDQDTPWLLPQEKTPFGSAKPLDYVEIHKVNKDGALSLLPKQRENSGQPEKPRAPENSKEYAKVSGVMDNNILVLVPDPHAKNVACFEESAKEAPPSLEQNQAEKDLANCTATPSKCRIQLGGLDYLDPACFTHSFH


Columns and labels:
[1] = target: T1, native PRLR expressing T47D cells; assay: FACS cell surface binding
In short: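 Flow cytometry on native PRLR-expressing T47D cells, alongside PRLR-overexpressing and parental HEK293 lines. Cells (1×10^5) incubated with antibody at 10 μg/ml, 30 min on ice, then PE anti-human secondary; binding reported as MFI fold over isotype control.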

HEK293 parental cells = assay: FACS cell surface binding; parameters: species or system human
In short: (§1)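 Values are mean fluorescence intensity relative to an isotype control (background). Antibodies at 10 μg/ml were incubated on ice for 30 min with HEK293 lines stably overexpressing HA-tagged species PRLR or with parental cells. A PE-conjugated anti-human secondary was used for detection.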

[2] = target: T2, mouse PRLR on HEK293/mPRLR cells; assay: FACS cell surface binding
In short: as §1

[3] = target: T3, human PRLR on HEK293/hPRLR cells; assay: FACS cell surface binding
In short: as §1

[4] = target: T4, monkey PRLR on HEK293/mfPRLR cells; assay: FACS cell surface binding
In short: as §1

[5] = target: T5, dimeric human PRLR (hPRLR.mFc; SEQ ID NO:402) (Homo sapiens, UniProt P16471); assay: Surface plasmon resonance (Biacore T200), antibody-capture format; type: binding; details: analyte hPRLR.mFc
T5 construct: dimeric (hPRLR.mFc)
T5 sequence (P16471 with tags, fused parts or gaps): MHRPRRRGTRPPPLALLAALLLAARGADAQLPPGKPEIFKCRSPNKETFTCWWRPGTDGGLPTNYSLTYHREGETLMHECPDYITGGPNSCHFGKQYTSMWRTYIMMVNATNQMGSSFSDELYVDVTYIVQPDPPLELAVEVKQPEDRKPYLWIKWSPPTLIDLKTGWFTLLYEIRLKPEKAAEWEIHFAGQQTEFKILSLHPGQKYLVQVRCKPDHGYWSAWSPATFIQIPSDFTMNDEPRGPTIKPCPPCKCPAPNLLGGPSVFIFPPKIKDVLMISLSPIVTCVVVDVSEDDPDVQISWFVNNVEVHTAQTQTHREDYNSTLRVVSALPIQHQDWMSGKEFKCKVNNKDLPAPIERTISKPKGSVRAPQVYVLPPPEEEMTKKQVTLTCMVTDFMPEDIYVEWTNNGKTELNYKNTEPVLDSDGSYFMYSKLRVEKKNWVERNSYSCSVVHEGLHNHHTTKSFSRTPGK
In short: (§2)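 Antibodies (human IgG1 Fc) captured on an anti-human Fc sensor surface; soluble monomeric (.mmh) or dimeric (.mFc) PRLR injected as analyte. ka and kd obtained by fitting to a 1:1 binding model.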

[6] = target: T6, monomeric human PRLR (hPRLR.mmh; SEQ ID NO:401) (Homo sapiens, UniProt P16471); assay: as above; type: binding; details: analyte hPRLR.mmh
T6 construct: soluble monomeric (hPRLR.mmh); mmh (myc-myc-hexahistidine) (C)
T6 sequence (P16471 with tags, fused parts or gaps): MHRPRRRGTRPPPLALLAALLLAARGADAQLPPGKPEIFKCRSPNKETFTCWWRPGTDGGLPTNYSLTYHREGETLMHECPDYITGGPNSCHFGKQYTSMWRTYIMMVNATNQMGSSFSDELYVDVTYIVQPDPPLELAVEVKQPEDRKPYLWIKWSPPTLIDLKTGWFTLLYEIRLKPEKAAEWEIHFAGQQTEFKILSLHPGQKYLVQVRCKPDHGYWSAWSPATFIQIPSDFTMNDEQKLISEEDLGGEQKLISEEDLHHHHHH
In short: as §2

[7] = tested on: Macaca fascicularis PRLR (mfPRLR.mmh; SEQ ID NO:403); assay: as above; type: binding; details: analyte mfPRLR.mmh
Sequence of Macaca fascicularis PRLR (mfPRLR.mmh; SEQ ID NO:403) (as listed by the source): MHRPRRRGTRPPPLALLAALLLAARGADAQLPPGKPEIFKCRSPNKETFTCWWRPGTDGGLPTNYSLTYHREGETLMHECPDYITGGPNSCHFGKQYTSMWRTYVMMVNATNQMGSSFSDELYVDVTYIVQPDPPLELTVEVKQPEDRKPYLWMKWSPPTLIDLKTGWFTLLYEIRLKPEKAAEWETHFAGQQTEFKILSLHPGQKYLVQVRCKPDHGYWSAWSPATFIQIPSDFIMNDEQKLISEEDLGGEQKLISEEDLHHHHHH
In short: as §2

FACS Cell Binding [1] [Fold Above Background]	FACS Cell Binding [2] [Fold Above Background]	FACS Cell Binding [3] [Fold Above Background]	FACS Cell Binding [4] [Fold Above Background]	ka ([5]; 25° C.) [M/s]	kd ([5]; 25° C.) [s⁻¹]	ka ([5]; 37° C.) [M/s]	kd ([5]; 37° C.) [s⁻¹]	ka ([6]; 25° C.) [M/s]	kd ([6]; 25° C.) [s⁻¹]	ka ([6]; 37° C.) [M/s]	kd ([6]; 37° C.) [s⁻¹]	kd ([7]; 25° C.) [s⁻¹]	kd ([7]; 37° C.) [s⁻¹]	Molecule	FACS Cell Binding (HEK293 parental cells) [Fold Above Background]	ka ([7]; 25° C.) [M/s]	ka ([7]; 37° C.) [M/s]
34	1	1	29	451000	8.69e-05	554000	0.000205	453000	0.000634	607000	0.00385	0.000657	0.00426	H1H6804P: fully human anti-PRLR antibody, human IgG1 Fc; HCVR/LCVR SEQ ID NOs 242/250 (antibody, V domains shown) VH: QVTLKESGPVLVKPTQTLSLTCTVSGFSLSDAGMGVSWIRQPPGKALEWLAHIFSNDGKSYSTSLKSRLTISKDTSKRQVVLTMTNMDPVDTATYYCARIRTGTYSLYLDYWGQGTLVTVSS VL: DIQMTQSPSSLSASVGDRVTITCRASQSINSYLNWYQQKPGKAPKLLLYFASSLQSGVPSRFSGSGSGTDFTLTISSLQPEDFASYYCQESYSTPWTFGQGTKVEIK	1	331000	455000
39	1	39	28	104000	6.29e-05	134000	6.2e-05	82400	0.000137	129000	0.000364	0.000209	0.000636	H1H6803P: fully human anti-PRLR antibody, human IgG1 Fc; HCVR/LCVR SEQ ID NOs 226/234 (antibody, V domains shown) VH: EVQLVESGGGVVRPGGSLRLSCAASGFKFDDYGMTWVRHVPGKGLEWVSGINWNGGRTGYTDSVKGRFTISRDNAKNSLYLQMNSLRAEDTALYHCAGARRDAFDIWGQGTMVTVSS VL: DIQMTQSPSSLSASIGDRVTITCRASQNIIKYLNWYQQNAGKAPKLLIYTASSLQSGVPSRFSGSGSGTDFTLTISSLQPEDFATYYCQQSSSSPYTFGQGTKLEIK	1	62100	87300
45	56	47	88	675000	0.000109	793000	0.000221	846000	0.000756	951000	0.00441	0.00123	0.00771	H1H6801P: fully human anti-PRLR antibody, human IgG1 Fc; HCVR/LCVR SEQ ID NOs 210/218 (antibody, V domains shown) VH: QVQLQQSGPGLVKPSQTLSLTCVISGDSVSSNTAWNWVRQSPSRGLEWLGRTYYRSKWYNDYAVSVKSRITINPDTSKNQFSLLMNSVTPEDTAVYYCARVVRGLNYFDYWGQGTLVTVSS VL: DIVMTQSPDSLAVSLGERATINCKSSQSVLYNSNNKNYLAWYQQKPGQPPKLLIYWSSSRESGVPDRFSGSGSGTDFTLTISGLQAEDVAIYYCQQYSTIPYTFGQGTKLEIK	7	657000	711000
